Test results reported in paper PMC9457330 (Proceedings of the National Academy of Sciences of the …, 2022).

Target: the molecule itself
Assay: native gel or EMSA

B1: SLC25A11 (endogenous, mouse) (natural protein, UniProt Q9CR62 1-314, looked up)
chain: MAATASPGAGRMDGKPRTSPKSVKFLFGGLAGMGATVFVQPLDLVKNRMQLSGEGAKTREYKTSFHALTSILKTEGLKGIYTGLSAGLLRQATYTTTRLGIYTVLFERLTGADGTPPGFLLKALIGMTAGATGAFVGTPAEVALIRMTADGRLPADQRRGYKNVFNALVRIAREEGVPTLWRGCIPTMARAVVVNAAQLASYSQSKQFLLDSGYFSDNILCHFCASMISGLVTTAASMPVDIVKTRIQNMRMIDGKPEYKNGLDVLLKVVRYEGFFSLWKGFTPYYARLGPHTVLTFIFLEQMNKAYKRLFLSG
stoichiometry N: 2
